Assay results published in US20200392227A1 (LYVGEN BIOPHARMA, published 2020).
Changes are numbered by the printed parent chain. Like-named read-outs stand apart in the source and are kept apart here. Each block holds one binder with its values, some of them ahead of it.

What was measured:
[1] = target: T1, human FcRIIA protein (MednaBio, E1033) (human, UniProt P12318 34-218, limits assumed); test: BLI
T1 construct: Bought; also called FcγRIIA
T1 sequence (looked up): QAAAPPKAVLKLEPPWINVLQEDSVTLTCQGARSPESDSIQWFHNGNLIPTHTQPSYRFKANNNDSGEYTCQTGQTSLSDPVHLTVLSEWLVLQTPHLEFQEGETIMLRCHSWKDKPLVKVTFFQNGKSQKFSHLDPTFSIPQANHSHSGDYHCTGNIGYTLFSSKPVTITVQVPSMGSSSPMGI
Outline: (§1)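 On an Octet Red96 System, anti-penta-HIS biosensors loaded with commercial human Fc receptor proteins were dipped into test IgG diluted 1:3 over 8 points from 300 nM. Fcγ receptor runs used pH 7.2 and FcRn runs used pH 6. Global fitting of these biolayer interferometry data gave the values for Kd, kon and koff, using a 1:1 binding model.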

[2] = target: T2, human FcRI protein (MednaBio, E1031) (human, UniProt P12314 16-288, limits assumed); test: BLI
T2 construct: Bought; loaded on anti-penta-HIS biosensors; also called FcγRI
T2 sequence (P12314 16-288 limits assumed): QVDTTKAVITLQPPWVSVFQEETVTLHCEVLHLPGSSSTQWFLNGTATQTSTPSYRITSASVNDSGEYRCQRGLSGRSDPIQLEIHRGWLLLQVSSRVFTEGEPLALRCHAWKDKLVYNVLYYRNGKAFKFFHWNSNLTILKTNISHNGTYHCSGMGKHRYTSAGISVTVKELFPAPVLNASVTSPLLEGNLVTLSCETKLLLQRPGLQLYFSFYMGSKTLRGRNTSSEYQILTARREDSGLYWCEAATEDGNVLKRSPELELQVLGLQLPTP
Outline: as §1

[3] = target: T3, human FcRIIIB protein (MednaBio, E1037) (human, UniProt O75015 17-200); test: BLI
T3 construct: Bought; also called FcγRIIIB; FcgRIIIB
T3 sequence (O75015 17-200 limits assumed): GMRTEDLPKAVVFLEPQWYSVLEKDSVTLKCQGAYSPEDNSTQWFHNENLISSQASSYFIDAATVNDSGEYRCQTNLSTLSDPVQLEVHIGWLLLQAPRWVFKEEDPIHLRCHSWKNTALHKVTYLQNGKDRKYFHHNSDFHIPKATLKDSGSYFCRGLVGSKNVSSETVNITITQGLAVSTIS
Outline: as §1

[4] = target: T4, human FcRIIIA-V158 protein (MednaBio, E1035) (human, UniProt P08637 17-208); test: BLI
T4 construct: Bought; also called FcγRIIIA(V); FcgRIIIA(V)
T4 sequence (P08637 17-208 F176V): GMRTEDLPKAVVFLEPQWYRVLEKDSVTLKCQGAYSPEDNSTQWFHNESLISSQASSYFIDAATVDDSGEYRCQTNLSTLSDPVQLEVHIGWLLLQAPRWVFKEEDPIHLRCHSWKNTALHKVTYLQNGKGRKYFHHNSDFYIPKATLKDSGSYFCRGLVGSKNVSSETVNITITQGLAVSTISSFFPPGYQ
Outline: as §1

[5] = target: T5, human FcRIIIA-F158 protein (MednaBio, E1036) (human, UniProt P08637 17-208); test: BLI
T5 construct: Bought; also called FcγRIIIA(F)
T5 sequence (P08637 17-208 limits assumed): as the sequence (P08637 17-208 F176V) above, with V160F counted along it
Outline: as §1

[6] = target: T6, human FcRIIB/C protein (MednaBio, E1034) (human, UniProt P31994 43-217, limits assumed); test: BLI
T6 construct: Bought as FcRIIB/C; also called FcγRIIB; CD32B
T6 sequence (looked up): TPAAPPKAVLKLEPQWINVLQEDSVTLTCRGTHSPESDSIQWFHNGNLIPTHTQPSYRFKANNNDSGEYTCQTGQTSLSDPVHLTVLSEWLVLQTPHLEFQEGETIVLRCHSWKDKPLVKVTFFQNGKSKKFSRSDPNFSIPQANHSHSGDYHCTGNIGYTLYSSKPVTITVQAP
Outline: as §1

[7] = target: T7, human FcRn protein (MednaBio, E1032) (human, UniProt P55899 24-297; P61769 21-119); test: BLI
T7 construct: Bought; assays at pH 6
Outline: as §1

[8] = target: T8, human FcγRIIA(R131) expressed on CHO cells (human, UniProt P12318 34-317); test: FACS, CHO cells expressing FcγRIIA(R131)
T8 construct: whole, on cells
T8 sequence (looked up): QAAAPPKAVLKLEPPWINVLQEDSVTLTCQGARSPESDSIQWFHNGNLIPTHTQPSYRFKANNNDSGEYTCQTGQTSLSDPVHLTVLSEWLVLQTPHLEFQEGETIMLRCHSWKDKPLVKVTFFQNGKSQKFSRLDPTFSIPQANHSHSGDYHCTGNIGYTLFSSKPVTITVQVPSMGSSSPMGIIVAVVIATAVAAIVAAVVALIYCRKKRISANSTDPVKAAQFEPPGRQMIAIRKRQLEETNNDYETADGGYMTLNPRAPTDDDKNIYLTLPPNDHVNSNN
Experimental: (§2) For FACS analysis of the IgG mutants' binding to different FcγRs, FcγR overexpressing CHO cells were harvested using trypsin-EDTA and were suspended in cold staining buffer (3% BSA in PBS). Test IgG mutants, which were diluted in staining buffer, were added into the cells. The mixture was incubated 4° C. for 2 hours, and then washed twice with cold staining buffer and re-suspended in PE-labeled anti-human IgG followed by incubation at 4° C. for 2 hours. The mixture was washed twice with staining buffer and re-suspended in 2% PFA in PBS for FACS.

[9] = target: T9, human FcγRIIA(H131) expressed on CHO cells (human, UniProt P12318 34-317); test: FACS, CHO cells expressing FcγRIIA(H131)
T9 construct: whole, on cells
T9 sequence (looked up): T8 sequence (looked up) with R134H
Experimental: as §2

[10] = target: T10, human FcγRIIC expressed on CHO cells (human, UniProt P31995 43-323); test: FACS, CHO cells expressing FcγRIIC
T10 construct: whole, on cells
T10 sequence (looked up): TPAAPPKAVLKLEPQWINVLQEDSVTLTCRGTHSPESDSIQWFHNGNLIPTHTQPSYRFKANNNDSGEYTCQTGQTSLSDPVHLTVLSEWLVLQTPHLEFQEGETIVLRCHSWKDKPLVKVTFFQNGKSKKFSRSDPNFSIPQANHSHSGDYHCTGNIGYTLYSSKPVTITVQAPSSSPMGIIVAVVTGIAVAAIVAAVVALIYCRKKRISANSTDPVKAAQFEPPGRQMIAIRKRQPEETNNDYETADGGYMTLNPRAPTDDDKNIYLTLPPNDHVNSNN

[11] = target: T11, human FcγRI expressed on CHO cells (human, UniProt P12314 16-374); test: FACS, CHO cells expressing FcγRI
T11 construct: whole, on cells
T11 sequence (P12314 16-374): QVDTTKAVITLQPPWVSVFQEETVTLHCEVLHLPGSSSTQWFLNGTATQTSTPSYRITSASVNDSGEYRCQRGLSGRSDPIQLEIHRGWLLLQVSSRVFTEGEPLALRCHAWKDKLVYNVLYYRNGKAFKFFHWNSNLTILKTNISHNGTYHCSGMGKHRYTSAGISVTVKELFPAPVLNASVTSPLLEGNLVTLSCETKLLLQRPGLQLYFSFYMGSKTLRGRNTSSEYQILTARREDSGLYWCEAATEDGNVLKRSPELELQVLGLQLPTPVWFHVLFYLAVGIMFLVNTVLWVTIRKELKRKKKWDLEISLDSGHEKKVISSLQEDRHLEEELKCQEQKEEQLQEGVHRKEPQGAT
Outline: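 Trypsin-harvested CHO cells overexpressing each FcγR were incubated 2 h at 4 °C with IgG mutants in 3% BSA/PBS. Bound IgG was detected with PE-labeled anti-human IgG (2 h, 4 °C), then cells were fixed in 2% PFA and analysed by flow cytometry.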

[12] = target: T1, human FcRIIA protein (MednaBio, E1033); test: BLI; remark: listed apart in the source
[13] = target: T2, human FcRI protein (MednaBio, E1031); test: BLI; remark: listed apart in the source
[14] = target: T3, human FcRIIIB protein (MednaBio, E1037); test: BLI; remark: listed apart in the source
[15] = target: T4, human FcRIIIA-V158 protein (MednaBio, …); test: BLI; remark: listed apart in the source
[16] = target: T5, human FcRIIIA-F158 protein (MednaBio, …); test: BLI; remark: listed apart in the source
[17] = target: T6, human FcRIIB/C protein (MednaBio, E1034); test: BLI; remark: listed apart in the source
[18] = target: T7, human FcRn protein (MednaBio, E1032); test: BLI; remark: listed apart in the source

binding result [1]: no binding (tested: 300 nM) | Kd [2]: 0.017 µM | koff [2]: 0.0074 s⁻¹ | kon [2]: 440000 M⁻¹ s⁻¹ | binding result [3]: no binding (tested: 300 nM) | binding result [4]: no binding (tested: 300 nM) | binding result [5]: no binding (tested: 300 nM) | Kd [6]: 0.14 µM | koff [6]: 0.013 s⁻¹ | kon [6]: 94000 M⁻¹ s⁻¹ | Kd [7]: 0.075 µM | koff [7]: 0.017 s⁻¹ | kon [7]: 230000 M⁻¹ s⁻¹ | binding result [8]: binds | binding result [9]: no binding (tested: 10 ug/ml) | binding result [10]: binds
B1: anti-CD137 IgG4 with Fc variant G4m9 (antibody)
heavy: EVQLVQSGAEVKKPGESLRISCKGSGYSFSTYWISWVRQMPGKGLEWMGKIYPGDSYTNYSPSFQGQVTISADKSISTAYLQWSSLKASDTAMYYCARGYGIFDYWGQGTLVTVSSASTKGPSVFPLAPCSRSTSESTAALGCLVKDYFPEPVTVSWNSGALTSGVHTFPAVLQSSGLYSLSSVVTVPSSSLGTKTYTCNVDHKPSNTKVDKRVESKYGPPCPPCPAPEFLGGPSVFLFPPKPKDTLMISRTPEVTCVVVDVEQEDPEVQFNWYVDGVEVHNAKTKPREEQFNSTYRVVSVLTVLHQDWLNGKEYKCKVSNKGFPSSIEKTISKAKGQPREPQVYTLPPSQEEMTKNQVSLTCLVKGFYPSDIAVEWESNGQPENNYKTTPPVLDSDGSFFLYSRLTVDKSRWQEGNVFSCSVMHEALHNHYTQKSLSLSLGK
light: SYELTQPPSVSVSPGQTASITCSGDNIGDQYAHWYQQKPGQSPVLVIYQDKNRPSGIPERFSGSNSGNTATLTISGTQAMDEADYYCATYTGFGSLAVFGGGTKLTVLGQPKAAPSVTLFPPSSEELQANKATLVCLISDFYPGAVTVAWKADSSPVKAGVETTTPSKQSNNKYAASSYLSLTPEQWKSHRSYSCQVTHEGSTVEKTVAPTECS
notes: copies: 2 + 2

binding result [11]: no binding (tested: 10 ug/ml) | binding result [8]: no binding (tested: 10 ug/ml) | binding result [12]: no binding (tested: 300 nM) | binding result [13]: no binding (tested: 300 nM) | binding result [14]: no binding (tested: 300 nM) | binding result [15]: no binding (tested: 300 nM) | binding result [16]: no binding (tested: 300 nM) | Kd [17]: 0.15 µM | koff [17]: 0.046 s⁻¹ | kon [17]: 310000 M⁻¹ s⁻¹ | Kd [18]: 0.0098 µM | koff [18]: 0.013 s⁻¹ | kon [18]: 1.4e+06 M⁻¹ s⁻¹ | binding result [9]: no binding (tested: 10 ug/ml)
B2: anti-CD137 IgG4 with Fc variant G4m2 (antibody)
heavy: EVQLVQSGAEVKKPGESLRISCKGSGYSFSTYWISWVRQMPGKGLEWMGKIYPGDSYTNYSPSFQGQVTISADKSISTAYLQWSSLKASDTAMYYCARGYGIFDYWGQGTLVTVSSASTKGPSVFPLAPCSRSTSESTAALGCLVKDYFPEPVTVSWNSGALTSGVHTFPAVLQSSGLYSLSSVVTVPSSSLGTKTYTCNVDHKPSNTKVDKRVESKYGPPCPPCPAPEFLGPSVFLFPPKPKDTLMISRTPEVTCVVVDVSQEDPEVQFNWYVDGVEVHNAKTKPREEQFNSTYRVVSVLTVLHQDWLNGKEYKCKVSNKGLPSSIEKTISKAKGQPREPQVYTLPPSQEEMTKNQVSLTCLVKGFYPSDIAVEWESNGQPENNYKTTPPVLDSDGSFFLYSRLTVDKSRWQEGNVFSCSVMHEALHNHYTQKSLSLSLGK
light: B1 light
notes: copies: 2 + 2

binding result [12]: no binding (tested: 300 nM) | binding result [13]: no binding (tested: 300 nM) | binding result [14]: no binding (tested: 300 nM) | binding result [15]: no binding (tested: 300 nM) | binding result [16]: no binding (tested: 300 nM) | binding result [17]: no binding (tested: 300 nM) | Kd [18]: 0.019 µM | koff [18]: 0.0098 s⁻¹ | kon [18]: 510000 M⁻¹ s⁻¹ | binding result [9]: no binding (tested: 10 ug/ml) | binding result [10]: no binding (tested: 10 ug/ml)
B3: anti-CD137 IgG4 with Fc variant G4m20 (antibody)
heavy: EVQLVQSGAEVKKPGESLRISCKGSGYSFSTYWISWVRQMPGKGLEWMGKIYPGDSYTNYSPSFQGQVTISADKSISTAYLQWSSLKASDTAMYYCARGYGIFDYWGQGTLVTVSSASTKGPSVFPLAPCSRSTSESTAALGCLVKDYFPEPVTVSWNSGALTSGVHTFPAVLQSSGLYSLSSVVTVPSSSLGTKTYTCNVDHKPSNTKVDKRVESKYGPPCPPCPAPEFLGSVFLFPPKPKDTLMISRTPEVTCVVVDVSQEDPEVQFNWYVDGVEVHNAKTKPREEQFNSTYRVVSVLTVLHQDWLNGKEYKCKVSNKGLPSSIEKTISKAKGQPREPQVYTLPPSQEEMTKNQVSLTCLVKGFYPSDIAVEWESNGQPENNYKTTPPVLDSDGSFFLYSRLTVDKSRWQEGNVFSCSVMHEALHNHYTQKSLSLSLGK
light: B1 light
notes: copies: 2 + 2
